Reference: article doi:10.1101/2023.09.29.560207 (bioRxiv, 2023)
One block for each molecule: values may come before it.

B1: His-RRM-1 (domain or fragment, human, UniProt Q13148 101-191, looked up)
chain: QKTSDLIVLGLPWKTTEQDLKEYFSTFGEVLMVQVKKDLKTGHSKGFGFVRFTEYETQVKVMSQRHMIDGRWCDCKLPNSKQSQDEPLRSR
B2: His-MBP-RGNEF^1–275 (domain or fragment, human, UniProt Q8N1W1 1-275, looked up)
chain: MELSCSEAPLYGQMMIYAKFDKNVYLPEDAEFYFTYDGSHQRHVMIAERIEDNVLQSSVPGHGLQETVTVSVCLCSEGYSPVTMGSGSVTYVDNMACRLARLLVTQANRLTACSHQTLLTPFALTAGALPALDEELVLALTHLELPLEWTVLGSSSLEVSSHRESLLHLAMRWGLAKLSQFFLCLPGGVQALALPNEEGATPLDLALREGHSKLVEDVTNFQGRWSPSFSRVQLSEEASLHYIHSSETLTLTLNHTAEHLLEADIKLFRKYFWDR

Key:
His-MBP-RGNEF^1–275 = target: B2; assay: SPR
His-GST-TDP-43^wt = His-GST-TDP-43^wt (human, UniProt Q13148 1-414); assay: SPR
Sequence of His-GST-TDP-43^wt (Q13148 whole entry): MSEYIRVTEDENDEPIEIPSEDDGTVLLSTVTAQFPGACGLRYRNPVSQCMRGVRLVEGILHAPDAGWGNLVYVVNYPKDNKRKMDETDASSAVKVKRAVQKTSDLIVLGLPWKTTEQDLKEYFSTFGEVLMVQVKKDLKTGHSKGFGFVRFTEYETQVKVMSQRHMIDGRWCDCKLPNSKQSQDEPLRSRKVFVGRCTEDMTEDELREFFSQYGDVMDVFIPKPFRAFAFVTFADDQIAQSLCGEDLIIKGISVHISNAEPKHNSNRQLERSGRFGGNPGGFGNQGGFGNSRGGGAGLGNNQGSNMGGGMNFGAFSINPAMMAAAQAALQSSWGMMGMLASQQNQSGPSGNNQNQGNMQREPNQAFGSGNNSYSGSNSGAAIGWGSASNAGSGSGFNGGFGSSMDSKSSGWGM

Kd (His-MBP-RGNEF^1–275): 4110 nM
Molecule: His-TDP-43^1–296 (from UniProt Q13148 1-261) (domain or fragment)

Molecule: B1
binding result (His-MBP-RGNEF^1–275): binds

Molecule: B2
Kd (His-GST-TDP-43^wt): 1780 nM
